From US7897573B2, “Selective VPAC2 receptor peptide agonists” (priority 2005, dated 2011)
Where two headings read alike, the source gives them in different places. Where no end group is shown, it is not given here.

How the values were obtained:
[1] = Rat serum stability study (DiscoveRx cAMP read-out on CHO-VPAC2 cells); settings: 24 h in rat serum at 37° C.; EC50, 4° C./EC50, 37° C.; values >100% may represent release of intact peptide from the PEG conjugate
Description: In order to determine the stability of VPAC2 receptor peptide agonists in rat serum, CHO-VPAC2 cells clone #6 (96 well plates/50,000 cells/well and 1 day culture), PBS 1× (Gibco), the peptides for the analysis in a 100 μM stock solution, rat serum from a sacrificed normal Wistar rat, aprotinin, and a DiscoveRx assay kit are obtained. The rat serum is stored at 4° C. until use and is used within two weeks.
The aliquot is stored with aprotinin at 4° C. The aliquot is stored without aprotinin at 37° C. The aliquots are incubated for 24 or 72 hours.
On Day 1, after incubation of the aliquots prepared on day 0 for 24 or 72 hours, an incubation buffer containing PBS+1.3 mM CaCl2, 1.2 mM MgCl2, 2 mM glucose, and 0.25 mM IBMX is prepared. A plate with 11 serial 5× dilutions of peptide for the 4° C. and 37° C. aliquot is prepared for each peptide studied. […] The plate(s) are washed with cells twice in incubation buffer. The plates are allowed to hold 50 μL incubation media per well for 15 minutes. 50 μL solution per well is transferred to the cells from the plate prepared with 11 serial 5× dilutions of peptide for the 4° C. and 37° C. aliquot for each peptide studied, using the maximal concentrations that are indicated by the primary screen, in duplicate. This step dilutes the peptide concentration by a factor of two. The cells are incubated at room temperature for 30 minutes. The supernatant is removed. 40 μL/well of the DiscoveRx antibody/extraction buffer is added. The cells are incubated on the shaker (300 rpm) for 1 hour. Normal procedure with the DiscoveRx kit is followed. cAMP standards are included in column 12. EC50 values are determined from the cAMP assay data.

Human PAC1 Receptor = biological target: T1, Human PAC1 Receptor (Homo sapiens, UniProt P41586); experiment: Filter binding assay, 125I-labeled PACAP-27, membranes of cells transiently transfected with human PAC1
T1 construct: expressed in transfected cells
T1 sequence (P41586 21-468): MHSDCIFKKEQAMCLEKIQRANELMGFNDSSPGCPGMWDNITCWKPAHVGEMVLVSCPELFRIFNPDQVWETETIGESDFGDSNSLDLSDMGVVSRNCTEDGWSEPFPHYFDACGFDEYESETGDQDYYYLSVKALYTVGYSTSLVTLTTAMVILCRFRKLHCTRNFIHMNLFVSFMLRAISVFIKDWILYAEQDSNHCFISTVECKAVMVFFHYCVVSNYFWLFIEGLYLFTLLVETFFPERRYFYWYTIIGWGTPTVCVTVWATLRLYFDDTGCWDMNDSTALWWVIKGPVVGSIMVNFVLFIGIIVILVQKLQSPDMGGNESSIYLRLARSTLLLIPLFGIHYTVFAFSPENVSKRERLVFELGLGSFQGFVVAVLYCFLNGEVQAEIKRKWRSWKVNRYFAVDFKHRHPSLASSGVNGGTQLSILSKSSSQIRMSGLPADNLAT
Description: (§1) For this assay, the solutions and equipment include:
(§2) Presoak solution: 0.5% Polyethyleneamine in Aqua dest
(§3) Buffer for flushing filter plates: 25 mM HEPES pH 7.4
(§4) Blocking buffer: 25 mM HEPES pH 7.4; 0.2% protease free BSA
(§5) Assay buffer: 25 mM HEPES pH 7.4; 0.5% protease free BSA
(§6) Dilution and assay plate: PS-Microplate, U form
(§7) Filtration Plate Multiscreen FB Opaque Plate; […] Type B Glasfiber filter
(§8) In order to prepare the filter plates, the presoak solution is aspirated by vacuum filtration. The plates are flushed twice with 200 μL flush buffer. 200 μL blocking buffer is added to the filter plate. The filter plate is then incubated with 200 μL presoak solution for 1 hour at room temperature.
(§9) The assay plate is filled with 25 μL assay buffer, 25 μL membranes (2.5 μg) suspended in assay buffer, 25 μL agonist in assay buffer, and 25 μL tracer (about 40000 cpm) in assay buffer. The filled plate is incubated for 1 hour with shaking.
(§10) The transfer from assay plate to filter plate is conducted. The blocking buffer is aspirated by vacuum filtration and washed two times with flush buffer. 90 μL is transferred from the assay plate to the filter plate. The 90 μL transferred from assay plate is aspirated and washed three times with 200 μL flush buffer. The plastic support is removed. It is dried for 1 hour at 60° C. 30 μL Microscint is added. The count is performed.

[2] = Pharmacokinetic profiles of PEGylated peptides in Fisher 344 rats; assay type: in vivo, rat; settings: 100 μg agonist/kg, plasma RIA, mean N = 3
Description: Pharmacokinetic profiles of PEGylated peptides. Healthy Fisher 344 rats (3 animals per group) were injected with 100 μg agonist/kg (agonist amount based on peptide content and dissolved in PBS buffer). Blood samples were drawn 3, 12, 24, 48, 72, 96 and 168 hour post dosing and the peptide content in plasma was analysed by a radio-immunoassay (RIA) directed against the N-terminus of the peptide. PK parameters were then calculated using a model-independent method (WinNonlin Pro, Pharsight Corp., Mountain View, Calif., USA).

Human VPAC1 Receptor = biological target: T2, Human VPAC1 Receptor (Homo sapiens, UniProt P32241); experiment: Filter binding assay, 125I-labeled VIP, membranes of cells transiently transfected with human VPAC1; settings: 125I-labeled VIP tracer
T2 construct: expressed in transfected cells
T2 sequence (P32241 31-457): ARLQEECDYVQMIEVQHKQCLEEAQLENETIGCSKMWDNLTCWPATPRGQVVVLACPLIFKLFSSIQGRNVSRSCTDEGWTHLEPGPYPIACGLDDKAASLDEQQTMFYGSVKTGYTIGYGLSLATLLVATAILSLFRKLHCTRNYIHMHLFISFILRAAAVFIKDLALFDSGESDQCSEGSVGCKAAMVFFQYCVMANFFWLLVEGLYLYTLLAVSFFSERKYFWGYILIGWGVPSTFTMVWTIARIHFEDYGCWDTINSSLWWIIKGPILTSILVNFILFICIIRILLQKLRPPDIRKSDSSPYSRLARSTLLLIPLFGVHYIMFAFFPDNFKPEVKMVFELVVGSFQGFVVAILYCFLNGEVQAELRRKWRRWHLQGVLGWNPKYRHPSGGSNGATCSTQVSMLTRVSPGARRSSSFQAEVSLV
Description: as §1, §2, §3, §4, §5, §6, §7, §8, §9, §10

Normal Wistar rats = experiment: Intravenous glucose tolerance test (IVGTT); assay type: in vivo, rat; settings: AUC insulin, 0-10 min after glucose, 24 h between glucose & compound, Wistar rats
Description: Intravenous glucose tolerance test (IVGTT): Normal Wistar rats are fasted overnight and are anesthetized prior to the experiment. A blood sampling catheter is inserted into the rats. The agonist is given subcutaneously, normally 24 h prior to the glucose challenge. Blood samples are taken from the carotid artery. A blood sample is drawn immediately prior to the injection of glucose along with the agonist. After the initial blood sample, glucose mixed is injected intravenously (i.v.). A glucose challenge of 0.5 g/kg body weight is given, injecting a total of 1.5 mL vehicle with glucose and agonist per kg body weight. The peptide concentrations are varied to produce the desired dose in μg/kg. Blood samples are drawn at 2, 4, 6 and 10 minutes after giving glucose. The control group of animals receives the same vehicle along with glucose, but with no agonist added. In some instances, 20 and 30 minute post-glucose blood samples were drawn. Aprotinin is added to the blood sample (250-500 kIU/ml blood). The plasma is then analyzed for glucose and insulin using standard methodologies.
The assay uses a formulated and calibrated peptide stock in PBS. Normally, this stock is a prediluted 100 μM stock. However, a more concentrated stock with approximately 1 mg agonist per mL is used. The specific concentration is always known. Variability in the maximal response is mostly due to variability in the vehicle dose.

Row | Molecule | 24 h stab (%) [1] | IC50 (Human PAC1 Receptor) | AUC0-last [2] | Cl/F [2] | Cmax [2] | Tmax [2] | T½ [2] | IC50 (Human VPAC1 Receptor) | IC50 (Human PAC1 Receptor; 125I-labeled PACAP-27 tracer) | % increase AUC: Dose = 0.09 mg/kg (Normal Wistar rats; 0.09 mg/kg) | % increase AUC: Dose = 0.3 mg/kg (Normal Wistar rats) | % increase AUC: Dose = 0.1 mg/kg (Normal Wistar rats)
1 | CC[C@H](C)[C@H](NC(=O)[C@H](CO)NC(=O)[C@H](CC(N)=O)NC(=O)[C@H](CC(C)C)NC(=O)[C@H](Cc1ccc(O)cc1)NC(=O)[C@H](CCCCN)NC(=O)[C@H](CCCCN)NC(=O)[C@@H](NC(=O)[C@H](C)NC(=O)[C@H](CCSC)NC(=O)[C@H](CCC(N)=O)NC(=O)[C@H](CCCCN)NC(=O)[C@H](CCCN=C(N)N)NC(=O)[C@H](CC(C)C)NC(=O)[C@H](CCCN=C(N)N)NC(=O)[C@@H](NC(=O)[C@H](Cc1ccc(O)cc1)NC(=O)[C@H](CC(N)=O)NC(=O)[C@H](CC(=O)O)NC(=O)[C@@H](NC(=O)[C@H](Cc1ccccc1)NC(=O)[C@@H](NC(=O)[C@H](C)NC(=O)[C@H](CC(=O)O)NC(=O)[C@H](CO)NC(=O)[C@@H](N)Cc1cnc[nH]1)C(C)C)[C@@H](C)O)[C@@H](C)O)C(C)C)C(=O)N[C@@H](CC(C)C)C(=O)N[C@@H](CC(N)=O)C(=O)O [VIP, reference compound] | 0.2% | > 1000 nM |  |  |  |  |  |  |  |  |  | 
2 | C6-HSDAVFTEQY(OMe)TOrnLRAibQLAAbuAibOrnY(OMe)LQAibIOrnOrnGGPSSGAPPPC(PEG20K)C(PEG20K)-NH2 (HSDAVFTEQYTXLRXQLAXXXYLQXIXXGGPSSGAPPPCC; C6 acyl, non-natural residues, two PEG20K, C-terminal amide; Synthetic sequence PEGylated VPAC2 receptor agonist) [Agonist P574] | 288% |  | 3408 ng·h/mL | 0.467 mL/min/kg | 70 ng/mL | 20 h | 18 h | > 25000 nM | > 25000 nM |  |  | 
3 | C6-HSDAVFTEQY(OMe)TOrnLRAibQLAAbuAibOrnYLQSIOrnC(PEG20K)OrnGGPSSGAPPPC(PEG20K)-NH2 (HSDAVFTEQYTXLRXQLAXXXYLQSIXCXGGPSSGAPPPC; C6 acyl, two PEG20K, C-terminal amide; Synthetic sequence PEGylated VPAC2 receptor agonist) [Agonist P555] | 117% |  | 4918 ng·h/mL | 0.333 mL/min/kg | 102 ng/mL | 16 h | 13 h | > 25000 nM | > 25000 nM |  |  | 
4 | C6-HSDAVFTEQY(OMe)TOrnLRAibQLAAbuAibOrnyAibQSIOrnOrnGGPSSGAPPPC(PEG30K)C(PEG30K)-NH2 (HSDAVFTEQYTXLRXQLAXXXYXQSIXXGGPSSGAPPPCC; not fully specified (some residues, N-terminus, C-terminus); printed as C6-HSDAVFTEQY(OMe)TOrnLRAibQLAAbuAibOrnyAibQSIOrnOrnGGPSSGAPPPC(PEG30K)C(PEG30K)-NH2; cysteine pairing not given here) [Agonist P602] | 573% |  |  |  |  |  |  | > 25000 nM | > 25000 nM | 73% | 198% | 
5 | C6-HSDAVFTEQY(OMe)TOrnLRAibQLAAbuAibOrnyLQAibIOrnOrnGGPSSGAPPPC(PEG30K)C(PEG30K)-NH2 (HSDAVFTEQYTXLRXQLAXXXYLQXIXXGGPSSGAPPPCC; not fully specified (some residues, N-terminus, C-terminus); printed as C6-HSDAVFTEQY(OMe)TOrnLRAibQLAAbuAibOrnyLQAibIOrnOrnGGPSSGAPPPC(PEG30K)C(PEG30K)-NH2; cysteine pairing not given here) [Agonist P570] |  |  | 3891 ng·h/mL | 0.417 mL/min/kg | 71 ng/mL | 20 h | 25 h | > 25000 nM | > 25000 nM |  |  | 36%
6 | C6-HSDAVFTEQY(OMe)TOrnLRAibQVAAAibOrnYLQSIOrnOrnC(PEG20K)GGPSSGAPPPC(PEG20K)NH2 (HSDAVFTEQYTXLRXQVAAXXYLQSIXXCGGPSSGAPPPC; C6 acyl, two PEG20K, C-terminal amide; Synthetic sequence PEGylated VPAC2 receptor agonist) [Agonist P562] | 213% |  | 5456 ng·h/mL | 0.317 mL/min/kg | 120 ng/mL | 24 h | 25 h | > 25000 nM | > 25000 nM |  |  | 
7 | C6-HSDAVFTEQY(OMe)TOrnLRAibQVAAbuAibOrnYLQAibIOrnOrnGGPSSGAPPPC(PEG40K)-NH2 (HSDAVFTEQYTXLRXQVAXXXYLQXIXXGGPSSGAPPPC; C6 acyl, PEG40K on Cys, C-terminal amide; Synthetic sequence PEGylated VPAC2 receptor agonist) [Agonist P511] |  |  | 3067 ng·h/mL |  | 100 ng/mL | 16 h |  | > 25000 nM | > 25000 nM |  | 59% | 38%
